According to the Immune Epitope Database (IEDB):

What was measured:
[1] = target: HLA-A*02:01; assay: IEDB peptide-MHC binding, purified MHC/competitive/fluorescence; ≥ and ≤ were set here for values at or beyond the usual limits of such assays; settings: source organism: Zaire ebolavirus
[2] = target: HLA-A*03:01; assay: as above
[3] = target: HLA-A*11:01; assay: as above
[4] = target: HLA-B*08:01; assay: as above; settings: source organism: Zaire ebolavirus
[5] = target: HLA-A*01:01; assay: IEDB peptide-MHC binding, purified MHC/direct/fluorescence; filed as Kd, often an IC50 or EC50 that approximates it; ≥ and ≤ were set here for values at or beyond the usual limits of such assays
[6] = target: HLA-A*02:01; assay: as above; settings: source organism: Influenza A virus (A/turkey/Minnesota/511/1978(H9N2))
[7] = target: HLA-A*03:01; assay: as above
[8] = target: HLA-A*11:01; assay: as above; settings: source organism: Influenza A virus (A/turkey/Minnesota/511/1978(H9N2))
[9] = target: HLA-A*24:02; assay: as above
[10] = target: HLA-A*26:01; assay: as above; settings: source organism: Influenza A virus (A/shorebird/Delaware/141/2002(H9N9))
[11] = target: HLA-A*31:01; assay: as above; settings: source organism: Influenza A virus (A/turkey/Minnesota/511/1978(H9N2))
[12] = target: HLA-A*69:01; assay: as above
[13] = target: HLA-B*07:02; assay: as above
[14] = target: HLA-B*08:01; assay: as above
[15] = target: HLA-B*15:01; assay: as above
[16] = target: HLA-B*27:05; assay: as above
[17] = target: HLA-B*40:01; assay: as above; settings: source organism: Influenza A virus (A/turkey/Minnesota/511/1978(H9N2))
[18] = target: HLA-B*44:02; assay: as above
[19] = target: HLA-B*58:01; assay: as above
[20] = target: HLA-B*07:02; assay: IEDB peptide-MHC binding, purified MHC/competitive/fluorescence; ≥ and ≤ were set here for values at or beyond the usual limits of such assays
[21] = target: HLA-B*08:02; assay: IEDB peptide-MHC binding, purified MHC/direct/fluorescence; filed as Kd, often an IC50 or EC50 that approximates it; ≥ and ≤ were set here for values at or beyond the usual limits of such assays; settings: source organism: Influenza A virus(A/swine/Shandong/fNY/2003(H9N2))
[22] = target: HLA-B*46:01; assay: as above; settings: source organism: Influenza A virus (A/egret/Hong Kong/757.3/2002(H5N1))
[23] = target: HLA-A*01:01; assay: IEDB peptide-MHC binding, purified MHC/competitive/fluorescence; ≥ and ≤ were set here for values at or beyond the usual limits of such assays; settings: source organism: Zaire ebolavirus
[24] = target: HLA-A*24:02; assay: as above; settings: source organism: Zaire ebolavirus
[25] = target: HLA-B*15:01; assay: as above; settings: source organism: Zaire ebolavirus
[26] = source organism: Zaire ebolavirus
[27] = source organism: Influenza A virus (A/turkey/Minnesota/511/1978(H9N2))
[28] = source organism: Influenza A virus (A/Puerto Rico/8/34/Mount Sinai(H1N1))
[29] = source organism: Influenza A virus (A/egret/Hong Kong/757.3/2002(H5N1))
[30] = source organism: Sudan ebolavirus

Q: What does the source list for MVIFRLMRT?
A: IC50 [1]: 0.478 µM; IC50 [2, 26]: ≥ 96.6 µM; IC50 [3, 26]: ≥ 177 µM; IC50 [4]: ≥ 77.6 µM

Q: Which Kd [5, 27] does the source give for DLLENLQAY here?
A: Its Kd is no less than 20 µM.

Q: And the Kd [6]?
A: Its Kd is no less than 20 µM.

Q: What about the Kd [7, 27] of the same sequence?
A: The Kd was no less than 20 µM.

Q: What about the Kd [8] of the same sequence?
A: Its Kd is no less than 20 µM.

Q: And the Kd [9, 27]?
A: The Kd was no less than 20 µM.

Q: What about the Kd [10] of the same sequence?
A: Its Kd is 0.115 µM.

Q: What about the Kd [11] of the same sequence?
A: The Kd was no less than 20 µM.

Q: And the Kd [12, 27]?
A: Its Kd is no less than 20 µM.

Q: What about the Kd [13, 27] of the same sequence?
A: The Kd was no less than 20 µM.

Q: What about the Kd [14, 27] of the same sequence?
A: Its Kd is no less than 20 µM.

Q: And the Kd [15, 28]?
A: The Kd was 2.69 µM.

Q: And the Kd [16, 27]?
A: Its Kd is no less than 20 µM.

Q: And the Kd [17]?
A: Its Kd is no less than 20 µM.

Q: What about the Kd [18, 27] of the same sequence?
A: The Kd was no less than 20 µM.

Q: What about the Kd [19, 27] of the same sequence?
A: The Kd was no less than 20 µM.

Q: For WPVMNHKNK, which IC50 [2, 26] is on record?
A: Its IC50 is no less than 180 µM.

Q: What about the IC50 [3, 26] of the same sequence?
A: The IC50 was no less than 185 µM.

Q: What about the IC50 [20, 26] of the same sequence?
A: The IC50 was 53.1 µM.

Q: What does the source list for EEFTMVGRR?
A: Kd [5, 29]: ≥ 20 µM; Kd [7, 28]: 1.01 µM; Kd [9, 29]: ≥ 20 µM; Kd [12, 29]: ≥ 20 µM; Kd [13, 29]: ≥ 20 µM; Kd [14, 29]: ≥ 20 µM; Kd [21]: ≥ 20 µM; Kd [15, 29]: ≥ 20 µM; Kd [16, 29]: ≥ 20 µM; Kd [18, 29]: ≥ 20 µM; Kd [22]: ≥ 20 µM; Kd [19, 29]: ≥ 20 µM

Q: How did the IC50 [23] turn out when VTLDGQQFY was run?
A: The IC50 was 3.88 µM.

Q: And the IC50 [1]?
A: The IC50 was no less than 226 µM.

Q: What about the IC50 [2, 26] of the same sequence?
A: Its IC50 is no less than 105 µM.

Q: And the IC50 [3, 26]?
A: Its IC50 is 4.92 µM.

Q: What about the IC50 [24] of the same sequence?
A: Its IC50 is no less than 192 µM.

Q: And the IC50 [25]?
A: Its IC50 is 53.6 µM.

Q: How did the IC50 [25] turn out when GQHIEGRQT was run?
A: The IC50 was no less than 148 µM.

Q: Which IC50 [2, 30] does the source give for RSRRQTNTK here?
A: The IC50 was 2.27 µM.

Q: What about the IC50 [3, 30] of the same sequence?
A: The IC50 was 1.47 µM.

Q: And the IC50 [20, 30]?
A: The IC50 was 8.84 µM.

Q: For EGHGFRFEV, which IC50 [1] is on record?
A: The IC50 was 28.1 µM.

Q: What about the IC50 [4] of the same sequence?
A: The IC50 was 69.3 µM.
